Data from paper doi:10.1101/2024.07.21.604514.

Experiments:
[1] = molecular target: human GLP-1R-LgBiT-2MBP (glucagon-like peptide-1 receptor, construct for structure determination) (human) (UniProt P43220)
[2] = molecular target: human GLP-1R-LgBiT-2MBP (glucagon-like peptide-1 receptor, construct for structure determination) (human) (UniProt P43220); remark: listed apart in the source

Sequence of UniProt P43220 (P43220 24-463): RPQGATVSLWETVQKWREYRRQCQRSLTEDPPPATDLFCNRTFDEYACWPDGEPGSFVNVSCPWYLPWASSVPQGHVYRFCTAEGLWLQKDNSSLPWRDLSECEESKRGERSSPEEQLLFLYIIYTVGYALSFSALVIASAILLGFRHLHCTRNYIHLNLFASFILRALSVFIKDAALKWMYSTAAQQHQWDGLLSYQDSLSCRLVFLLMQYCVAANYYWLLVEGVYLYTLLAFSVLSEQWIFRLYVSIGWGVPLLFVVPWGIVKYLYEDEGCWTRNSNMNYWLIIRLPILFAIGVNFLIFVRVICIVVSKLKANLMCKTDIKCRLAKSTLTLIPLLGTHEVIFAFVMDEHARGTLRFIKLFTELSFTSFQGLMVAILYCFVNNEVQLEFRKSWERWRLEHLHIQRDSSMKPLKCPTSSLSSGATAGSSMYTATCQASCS

GLP-1(9-36)NH2 (peptide)
EC50 of cAMP accumulation, WT GLP-1R, with 50 nM LSN3318839 (full agonist) [1]: 23 nM
EC50 of cAMP accumulation, WT GLP-1R, with 5 μM LSN3318839 [2]: 0.41 nM
